Reference: US20140178935A1 (AVEO PHARMACEUTICALS, published 2014)

B1: HE2B8-4 (LRMR2B8HC + IgG1 constant region G1m(3) allotype allele 1, plus LRMR2B8LC + Kappa constant region Km(3) allotype allele 1) (antibody, V domains shown)
VH: QVQLVQPGAEVKKPGTSVKLSCKASGYTFTTYWMHWVRQAPGQGLEWIGEINPTNGHTNYNQKFQGRATLTVDKSTSTAYMELSSLRSEDTAVYYCARNYVGSIFDYWGQGTLLTVSS
VL: DIVMTQSPDSLAMSLGERVTLNCKASENVVSYVSWYQQKPGQSPKLLIYGASNRESGVPDRFSGSGSATDFTLTISSVQAEDVADYHCGQSYNYPYTFGQGTKLEIKR
notes: Human Engineered 2B8 variant, human IgG1 kappa, made in HEK293E cells
B2: anti-hHGF monoclonal antibody 2B8 (antibody, mouse IgG1, kappa)
heavy: QVQLQQPGAELVKPGTSVKLSCKASGYTFTTYWMHWVNQRPGQGLEWIGEINPTNGHTNYNEKFKSKATLTVDKSSSTAYMQLSSLTSEDSAVYYCARNYVGSIFDYWGQGTTLTVSSAKTTPPSVYPLAPGSAAQTNSMVTLGCLVKGYFPEPVTVTWNSGSLSSGVHTFPAVLQSDLYTLSSSVTVPSSTWPSETVTCNVAHPASSTKVDKKIVPRDCGCKPCICTVPEVSSVFIFPPKPKDVLTITLTPKVTCVVVDISKDDPEVQFSWFVDDVEVHTAQTQPREEQFNSTFRSVSELPIMHQDWLNGKEFKCRVNSAAFPAPIEKTISKTKGRPKAPQVYTIPPPKEQMAKDKVSLTCMITDFFPEDITVEWQWNGQPAENYKNTQPIMDTDGSYFVYSKLNVQKSNWEAGNTFTCSVLHEGLHNHHTEKSLSHSPGK
light: NIVMTQSPKSMSMSVGERVTLSCKASENVVSYVSWYQQKPAQSPKLLIYGASNRNTGVPDRFTGSGSATDFTLTISSVRAEDLADYHCGQSYNYPYTFGGGTRLEIKRADAAPTVSIFPPSSEQLTSGGASVVCFLNNFYPKDINVKWKIDGSERQNGVLNSWTDQDSKDSTYSMSSTLTLTKDEYERHNSYTCEATHKTSTSPIVKSFNRNEC
notes: Murine IgG1 kappa from hybridoma; also called murine 2B8; mouse 2B8

What was measured:
[1] = molecular target: T1, recombinant human HGF (R&D Systems, Catalog No. 294-HGN-025) (human, UniProt P14210 32-728); test: cell-based or functional assay
[2] = molecular target: T1, recombinant human HGF (R&D Systems, …); test: competition ELISA (DELFIA): antibody inhibits biotinylated c-Met binding to plate-coated HGF
Experimental: The plates then were blocked with 200 μL of 5% non-fat dry milk in PBS for 1 hour at room temperature. […] 100 μL of sample per well was transferred to the assay plate and incubated for 2 hours at room temperature. The resulting plates were washed three times with PBS-0.1% Tween 20, and incubated for 1 hour at room temperature with Eu-labeled Streptavidin (Wallac, Catalog No. 1244-360) diluted 1:1000 in DELFIA assay buffer (Wallac, Catalog No. 4002-0010). The resulting plates were washed 3 times with DELFIA wash solution (Wallac, Catalog No. 4010-0010) and incubated with 100 μL/well DELFIA enhancement solution (Wallac #4001-0010) for 15 minutes at room temperature with agitation. The plates were read on Victor³V instrument (Perkin Elmer) using the Europium method. The IC₅₀ values were calculated using Prism.

[3] = molecular target: T1, recombinant human HGF (R&D Systems, …); test: SPR, captured antibody, HGF injected, 25 C
Experimental: (§1) Mouse anti-human immunoglobulins (Jackson Labs, Catalog No. 209-005) were immobilized on carboxymethylated dextran CM4 sensor chips (BIAcore, Catalog No. BR-1006-68) by amine coupling (BIAcore, Catalog No. BR-1000-50) using a standard coupling protocol according to manufacturer's instructions. The analyses were performed at 25° C. using PBS (GIBCO, Catalog No. 14040-133) containing 0.05% surfactant P20 (BIAcore, Catalog No. BR-1000-54), and 2 mg/mL BSA (EMD, Catalog No. 2930).
(§2) The antibodies were captured in an individual flow cell at a flow rate of 10 μL/min. Injection time was variable for each antibody to yield approximately 20 RU of antibody captured for each cycle. […] The dissociation phase was monitored for 15 or 90 minutes, depending on concentration. The surface then was regenerated with 10 mM Glycine-HCl, pH 2.2 (BIAcore, Catalog No. BR-1003-54) injected for 3 minutes at a flow rate of 60 μL/min before another cycle was initiated.
Kinetic parameters were determined using the kinetic function of the BIAevalutation™ software with reference subtraction.

[4] = molecular target: T1, recombinant human HGF (R&D Systems, …); test: SPR, captured antibody, HGF injected, 25 C; remark: listed apart in the source
Experimental: as §1, with “209-005) or rabbit anti-mouse immunoglobulins (BIAcore, Catalog No. BR-1005-14)” for “209-005)”, “instructions. […]” for “instructions.”, “25° C. and 37°” for “25°”, “2930) as running buffer.” for “2930).”
as §2, with “[…].” for “μL/min.”, “surface of mouse anti-human immunoglobulins sensor chips was” for “surface”, “then” for “then was”, “initiated. The surface of rabbit anti-mouse immunoglobulins sensor chips was regenerated with 10 mM Glycine-HCl, pH 1.7 (BIAcore, Catalog No. BR-1003-54) injected for 3 minutes at a flow rate of 60 μL/min before another cycle was initiated.” for “initiated.”
(§3) Kinetic parameters were determined using the kinetic function of the BIAevaluation software with reference subtraction.

[5] = molecular target: T1, recombinant human HGF (R&D Systems, …); test: SPR, captured antibody, HGF injected, 37 C
Experimental: as §1, with “209-005) or rabbit anti-mouse immunoglobulins (BIAcore, Catalog No. BR-1005-14)” for “209-005)”, “instructions. […]” for “instructions.”, “25° C. and 37°” for “25°”, “2930) as running buffer.” for “2930).”
as §2, with “[…].” for “μL/min.”, “surface of mouse anti-human immunoglobulins sensor chips was” for “surface”, “then” for “then was”, “initiated. The surface of rabbit anti-mouse immunoglobulins sensor chips was regenerated with 10 mM Glycine-HCl, pH 1.7 (BIAcore, Catalog No. BR-1003-54) injected for 3 minutes at a flow rate of 60 μL/min before another cycle was initiated.” for “initiated.”
as §3

[6] = molecular target: T1, recombinant human HGF (R&D Systems, …); test: cell-based or functional assay; remark: listed apart in the source

T1 sequence (P14210 32-728 limits assumed): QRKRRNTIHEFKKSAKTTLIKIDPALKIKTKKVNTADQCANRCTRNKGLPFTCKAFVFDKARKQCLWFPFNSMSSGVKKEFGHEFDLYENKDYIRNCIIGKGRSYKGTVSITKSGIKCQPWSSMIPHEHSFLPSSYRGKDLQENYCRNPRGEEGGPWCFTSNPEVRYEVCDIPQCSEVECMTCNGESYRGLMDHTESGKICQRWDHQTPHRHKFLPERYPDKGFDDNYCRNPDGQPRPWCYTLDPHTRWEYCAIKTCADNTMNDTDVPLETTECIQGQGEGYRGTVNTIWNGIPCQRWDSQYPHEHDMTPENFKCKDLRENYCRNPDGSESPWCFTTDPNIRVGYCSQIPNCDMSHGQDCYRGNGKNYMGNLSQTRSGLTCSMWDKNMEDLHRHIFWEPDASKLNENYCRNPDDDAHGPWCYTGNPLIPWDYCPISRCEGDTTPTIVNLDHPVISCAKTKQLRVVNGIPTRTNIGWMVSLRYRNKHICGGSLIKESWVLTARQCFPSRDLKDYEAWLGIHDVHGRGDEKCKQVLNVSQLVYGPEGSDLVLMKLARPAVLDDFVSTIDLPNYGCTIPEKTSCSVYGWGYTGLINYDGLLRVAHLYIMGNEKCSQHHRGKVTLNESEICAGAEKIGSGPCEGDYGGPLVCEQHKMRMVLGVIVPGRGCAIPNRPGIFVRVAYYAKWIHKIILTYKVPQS

| Binder | IC50, neutralization of HGF stimulated BrdU incorporation in 4 MBr-5 cells [1] | IC50 [2] | Kd [3] | koff [3] | kon [3] | Kd [4] | koff [4] | kon [4] | Kd [5] | koff [5] | kon [5] | EC50, inhibition of HGF-stimulated c-Met phosphorylation in PC-3 cells, Average of Two Trials [6] |
| --- | --- | --- | --- | --- | --- | --- | --- | --- | --- | --- | --- | --- |
| B1 | 0.58 nM | 6.5 nM | 0.0065 nM | 1.1e-05 s⁻¹ | 1.7e+06 M⁻¹ s⁻¹ | 0.0056 nM | 1.2e-05 s⁻¹ | 2e+06 M⁻¹ s⁻¹ | 0.0033 nM | 1e-05 s⁻¹ | 3.1e+06 M⁻¹ s⁻¹ | 0.75 nM |
| B2 | 0.86 nM | 9.2 nM | 0.0073 nM | 1e-05 s⁻¹ | 1.4e+06 M⁻¹ s⁻¹ | 0.0135 nM | 2.1e-05 s⁻¹ | 1.6e+06 M⁻¹ s⁻¹ | 0.0045 nM | 1.3e-05 s⁻¹ | 2.8e+06 M⁻¹ s⁻¹ | 0.91 nM |
